Experimental data reported in article PMC10144703, “Molecular Mechanism of Sirtuin 1 Inhibition by Human Immunodeficiency Virus 1 Tat Protein” (Life, 2023).

Columns and labels:
mini-Sirt1 [1] = molecular target: T1, mini-Sirt1 (Homo sapiens, UniProt Q96EB6); assay: 2D-(1H, 15N)-HSQC NMR titration of Tat-Cys^− with mini-Sirt1; type: binding; details: 58 µM Tat-Cys^−, 2-fold molar excess mini-Sirt1, pH 6.4, 298 K
T1 construct: aa 183-505-(GGGS)2-641-665; made in house; host or cells: E. coli CodonPlus(DE3)
T1 sequence (Q96EB6 with tags, fused parts or gaps limits assumed): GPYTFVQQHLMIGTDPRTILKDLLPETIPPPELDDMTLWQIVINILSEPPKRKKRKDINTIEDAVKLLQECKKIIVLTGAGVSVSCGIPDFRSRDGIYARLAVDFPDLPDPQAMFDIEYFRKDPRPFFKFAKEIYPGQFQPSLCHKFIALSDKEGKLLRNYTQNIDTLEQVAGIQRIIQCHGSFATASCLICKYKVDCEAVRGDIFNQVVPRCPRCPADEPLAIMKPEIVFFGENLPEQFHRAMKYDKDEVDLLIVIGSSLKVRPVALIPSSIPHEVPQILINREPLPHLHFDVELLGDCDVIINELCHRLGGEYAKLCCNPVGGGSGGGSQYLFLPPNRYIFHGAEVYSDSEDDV
Procedure: NMR titration experiments were performed by stepwise addition of unlabeled mini-Sirt1 (stock concentration 260 µM) to 100 µM ^15N-labeled Tat-Cys^− in 150 mM sodium chloride, and 10 mM potassium phosphate (pH 6.4). Spectra for 2D-(^1H, ^15N)-HSQC NMR were recorded at 298 K on a Bruker 700 MHz spectrometer equipped with a cryogenically-cooled probe.

[2] = system: mini-Sirt1-∆SBD (aa 214-505-(GGGS)2-641-665); assay: Inhibition of mini-Sirt1-∆SBD (ac-p53 substrate); type: biochemical, human; details: dose-dependent, 100 µM ac-p53, n = 3; relative to mini-Sirt1
From the text: A human mini-Sirt1 construct (aa 183-505-(GGGS)2-641-665), as described in [27], was generated in a modified pET-19b with a TEV cleavage site. This construct and human full-length Sirt1 (fl-Sirt1) in pET-15b, Sirt1-(183-664) and Sirt1-(214-664) in pET-15b, mini-Sirt1-∆SBD (aa 214-505-(GGGS)2-641-665) and mini-Sirt1-∆ESA (aa 183–505) in a modified pET-19b with TEV cleavage site, Sirt2-(43-356) in a modified pET-19b with a His6-Sumo tag, Sirt3-(93-399) in a modified pET-32a with Trx-His6 tag and TEV cleavage site, hSirt3-(118-399) in pVFT3S (Sungkyunkwan University, Seoul, Republic of Korea) with His6-Trx tag and TEV cleavage site, Sirt5-(34-302) in pET-151/D-TOPO, and Sirt6-(1-355) in pQE80L.1 were purified as described. […]
Continuous coupled enzymatic sirtuin activity assays were conducted as described. […] Reactions were monitored for 1 h at room temperature by absorption spectroscopy at 340 nm in a UV/vis plate reader (BioTek). The slope for the linear range (typically 5–25 min) was evaluated after background correction with measurements without NAD^+. Additional control reactions were run by either omitting enzyme or omitting peptide substrate to ensure that the signal measured reflects the NAD+-dependent deacetylation activity of the sirtuin.

mini-Sirt1 [3] = molecular target: T1, mini-Sirt1; assay: DSSO crosslinking and MS analysis of mini-Sirt1/Tat-Cys^−; type: binding
Procedure: Prior to crosslinking, mini-Sirt1, and Tat-Cys^− were dialyzed separately at 4 °C in Xpress Micro Dialyzer tubes (Serva, MD300, cutoff 6–8 kDa) against 25 mM HEPES, pH 7.5, 150 mM NaCl, 5% (v/v) glycerol. Then, 50 µM of each protein was crosslinked at 20 °C with 2.82 mM disuccinimidyl sulfoxide (DSSO) in 5% (v/v) DMSO. Before the addition of the crosslinker, 10 µL was removed from the reaction (t = 0 min) and stopped by adding 1 µL 1 M Tris/HCl, pH 8.0. Likewise, at several timepoints after the addition of DSSO, 10 µL of the reaction was sampled. Reaction samples were supplemented with SDS sample buffer and separated on a 15% SDS-PAGE. Controls contained only one of the two proteins and were treated similarly to exclude self-crosslinking.
Crosslinked protein bands were cut out from SDS-PAGE gels and digested with 200 ng trypsin in 25 mM NH4HCO3, pH 8.0, at 37 °C overnight. The digested proteins were dried in a vacuum centrifuge, resuspended in 0.1% (v/v) FA, and injected onto a desalting column, followed by automated peptide separation with a C18 column (buffer A: 0.1% (v/v) FA, 5% (v/v) acetonitrile; buffer B: 0.1% (v/v) FA, 95% (v/v) acetonitrile). MS/MS spectra were recorded with an LTQ mass spectrometer (Thermo Fischer Scientific, Waltham, MA, USA) and CID-cleaved inter-protein crosslinks were analyzed with Byonic^TM (Protein Metrics Inc., San Carlos, CA, USA).

B1: Tat-Cys^−: Recombinant 86-residue HIV1 Zaire 2 Tat with C22S, C25A, C27A, C30S, C31A, C34S, and C37A (protein)
chain: MDPVDPNIEPWNHPGSQPKTASNRAHAKKSAYHSQVAFITKGLGISYGRKKRRQRRRPSQGGQTHQDPIPKQPSSQPRGDPTGPKE
HSQC signal changes on mini-Sirt1 addition (mini-Sirt1 [1]): a large number of HSQC signals to disappear
HSQC signals unchanged on mini-Sirt1 addition (mini-Sirt1 [1]): mostly to Tat residues 63–87
inhibitory effects, mini-Sirt1-∆SBD [2]: unchanged inhibitory effects
crosslinking, SDS-PAGE (mini-Sirt1 [3]; 50 µM each protein, 2.82 mM DSSO, 5% (v/v) DMSO, pH 7.5, 20 °C): a strong band for a linked complex
crosslink site by MS (mini-Sirt1 [3]; DSSO crosslink, trypsin digest, MS/MS): a crosslink between Tat-Lys71 and Sirt1-Lys238
